Kd data for 1 molecule are collected here from article PMC6247401, “Macrophage LRP1 Promotes Diet-Induced Hepatic Inflammation and Metabolic Dysfunction by Modulating Wnt Signaling” (Mediators of Inflammation, 2018).

This assay addresses T1, low-density lipoprotein receptor-related protein 1 (LRP1) (UniProt Q07954 20-4544).
T1 construct: low-density lipoprotein receptor-related protein 1 (LRP1), full length, purified from placenta; also called full-length LRP1; purified LRP1
The experiment in a line: SPR; Biacore 3000; full-length LRP1 amine-coupled to a CM5 chip; sFRP-5 (1.6-100 nmol/l) flowed over at 20 ul/min, 25°C, in HBS-P (0.01 M HEPES pH 7.4, 0.15 M NaCl, 0.005% P20) with 1 mM CaCl2; Req from a pseudo-first order fit with a nonspecific component, plotted against concentration and fitted to a single class of sites. The conditions noted are these: both partners purified. Background: In SPR one partner is held on a chip, and binding of the other changes the refractive index at the surface.

T1 sequence (Q07954 20-4544): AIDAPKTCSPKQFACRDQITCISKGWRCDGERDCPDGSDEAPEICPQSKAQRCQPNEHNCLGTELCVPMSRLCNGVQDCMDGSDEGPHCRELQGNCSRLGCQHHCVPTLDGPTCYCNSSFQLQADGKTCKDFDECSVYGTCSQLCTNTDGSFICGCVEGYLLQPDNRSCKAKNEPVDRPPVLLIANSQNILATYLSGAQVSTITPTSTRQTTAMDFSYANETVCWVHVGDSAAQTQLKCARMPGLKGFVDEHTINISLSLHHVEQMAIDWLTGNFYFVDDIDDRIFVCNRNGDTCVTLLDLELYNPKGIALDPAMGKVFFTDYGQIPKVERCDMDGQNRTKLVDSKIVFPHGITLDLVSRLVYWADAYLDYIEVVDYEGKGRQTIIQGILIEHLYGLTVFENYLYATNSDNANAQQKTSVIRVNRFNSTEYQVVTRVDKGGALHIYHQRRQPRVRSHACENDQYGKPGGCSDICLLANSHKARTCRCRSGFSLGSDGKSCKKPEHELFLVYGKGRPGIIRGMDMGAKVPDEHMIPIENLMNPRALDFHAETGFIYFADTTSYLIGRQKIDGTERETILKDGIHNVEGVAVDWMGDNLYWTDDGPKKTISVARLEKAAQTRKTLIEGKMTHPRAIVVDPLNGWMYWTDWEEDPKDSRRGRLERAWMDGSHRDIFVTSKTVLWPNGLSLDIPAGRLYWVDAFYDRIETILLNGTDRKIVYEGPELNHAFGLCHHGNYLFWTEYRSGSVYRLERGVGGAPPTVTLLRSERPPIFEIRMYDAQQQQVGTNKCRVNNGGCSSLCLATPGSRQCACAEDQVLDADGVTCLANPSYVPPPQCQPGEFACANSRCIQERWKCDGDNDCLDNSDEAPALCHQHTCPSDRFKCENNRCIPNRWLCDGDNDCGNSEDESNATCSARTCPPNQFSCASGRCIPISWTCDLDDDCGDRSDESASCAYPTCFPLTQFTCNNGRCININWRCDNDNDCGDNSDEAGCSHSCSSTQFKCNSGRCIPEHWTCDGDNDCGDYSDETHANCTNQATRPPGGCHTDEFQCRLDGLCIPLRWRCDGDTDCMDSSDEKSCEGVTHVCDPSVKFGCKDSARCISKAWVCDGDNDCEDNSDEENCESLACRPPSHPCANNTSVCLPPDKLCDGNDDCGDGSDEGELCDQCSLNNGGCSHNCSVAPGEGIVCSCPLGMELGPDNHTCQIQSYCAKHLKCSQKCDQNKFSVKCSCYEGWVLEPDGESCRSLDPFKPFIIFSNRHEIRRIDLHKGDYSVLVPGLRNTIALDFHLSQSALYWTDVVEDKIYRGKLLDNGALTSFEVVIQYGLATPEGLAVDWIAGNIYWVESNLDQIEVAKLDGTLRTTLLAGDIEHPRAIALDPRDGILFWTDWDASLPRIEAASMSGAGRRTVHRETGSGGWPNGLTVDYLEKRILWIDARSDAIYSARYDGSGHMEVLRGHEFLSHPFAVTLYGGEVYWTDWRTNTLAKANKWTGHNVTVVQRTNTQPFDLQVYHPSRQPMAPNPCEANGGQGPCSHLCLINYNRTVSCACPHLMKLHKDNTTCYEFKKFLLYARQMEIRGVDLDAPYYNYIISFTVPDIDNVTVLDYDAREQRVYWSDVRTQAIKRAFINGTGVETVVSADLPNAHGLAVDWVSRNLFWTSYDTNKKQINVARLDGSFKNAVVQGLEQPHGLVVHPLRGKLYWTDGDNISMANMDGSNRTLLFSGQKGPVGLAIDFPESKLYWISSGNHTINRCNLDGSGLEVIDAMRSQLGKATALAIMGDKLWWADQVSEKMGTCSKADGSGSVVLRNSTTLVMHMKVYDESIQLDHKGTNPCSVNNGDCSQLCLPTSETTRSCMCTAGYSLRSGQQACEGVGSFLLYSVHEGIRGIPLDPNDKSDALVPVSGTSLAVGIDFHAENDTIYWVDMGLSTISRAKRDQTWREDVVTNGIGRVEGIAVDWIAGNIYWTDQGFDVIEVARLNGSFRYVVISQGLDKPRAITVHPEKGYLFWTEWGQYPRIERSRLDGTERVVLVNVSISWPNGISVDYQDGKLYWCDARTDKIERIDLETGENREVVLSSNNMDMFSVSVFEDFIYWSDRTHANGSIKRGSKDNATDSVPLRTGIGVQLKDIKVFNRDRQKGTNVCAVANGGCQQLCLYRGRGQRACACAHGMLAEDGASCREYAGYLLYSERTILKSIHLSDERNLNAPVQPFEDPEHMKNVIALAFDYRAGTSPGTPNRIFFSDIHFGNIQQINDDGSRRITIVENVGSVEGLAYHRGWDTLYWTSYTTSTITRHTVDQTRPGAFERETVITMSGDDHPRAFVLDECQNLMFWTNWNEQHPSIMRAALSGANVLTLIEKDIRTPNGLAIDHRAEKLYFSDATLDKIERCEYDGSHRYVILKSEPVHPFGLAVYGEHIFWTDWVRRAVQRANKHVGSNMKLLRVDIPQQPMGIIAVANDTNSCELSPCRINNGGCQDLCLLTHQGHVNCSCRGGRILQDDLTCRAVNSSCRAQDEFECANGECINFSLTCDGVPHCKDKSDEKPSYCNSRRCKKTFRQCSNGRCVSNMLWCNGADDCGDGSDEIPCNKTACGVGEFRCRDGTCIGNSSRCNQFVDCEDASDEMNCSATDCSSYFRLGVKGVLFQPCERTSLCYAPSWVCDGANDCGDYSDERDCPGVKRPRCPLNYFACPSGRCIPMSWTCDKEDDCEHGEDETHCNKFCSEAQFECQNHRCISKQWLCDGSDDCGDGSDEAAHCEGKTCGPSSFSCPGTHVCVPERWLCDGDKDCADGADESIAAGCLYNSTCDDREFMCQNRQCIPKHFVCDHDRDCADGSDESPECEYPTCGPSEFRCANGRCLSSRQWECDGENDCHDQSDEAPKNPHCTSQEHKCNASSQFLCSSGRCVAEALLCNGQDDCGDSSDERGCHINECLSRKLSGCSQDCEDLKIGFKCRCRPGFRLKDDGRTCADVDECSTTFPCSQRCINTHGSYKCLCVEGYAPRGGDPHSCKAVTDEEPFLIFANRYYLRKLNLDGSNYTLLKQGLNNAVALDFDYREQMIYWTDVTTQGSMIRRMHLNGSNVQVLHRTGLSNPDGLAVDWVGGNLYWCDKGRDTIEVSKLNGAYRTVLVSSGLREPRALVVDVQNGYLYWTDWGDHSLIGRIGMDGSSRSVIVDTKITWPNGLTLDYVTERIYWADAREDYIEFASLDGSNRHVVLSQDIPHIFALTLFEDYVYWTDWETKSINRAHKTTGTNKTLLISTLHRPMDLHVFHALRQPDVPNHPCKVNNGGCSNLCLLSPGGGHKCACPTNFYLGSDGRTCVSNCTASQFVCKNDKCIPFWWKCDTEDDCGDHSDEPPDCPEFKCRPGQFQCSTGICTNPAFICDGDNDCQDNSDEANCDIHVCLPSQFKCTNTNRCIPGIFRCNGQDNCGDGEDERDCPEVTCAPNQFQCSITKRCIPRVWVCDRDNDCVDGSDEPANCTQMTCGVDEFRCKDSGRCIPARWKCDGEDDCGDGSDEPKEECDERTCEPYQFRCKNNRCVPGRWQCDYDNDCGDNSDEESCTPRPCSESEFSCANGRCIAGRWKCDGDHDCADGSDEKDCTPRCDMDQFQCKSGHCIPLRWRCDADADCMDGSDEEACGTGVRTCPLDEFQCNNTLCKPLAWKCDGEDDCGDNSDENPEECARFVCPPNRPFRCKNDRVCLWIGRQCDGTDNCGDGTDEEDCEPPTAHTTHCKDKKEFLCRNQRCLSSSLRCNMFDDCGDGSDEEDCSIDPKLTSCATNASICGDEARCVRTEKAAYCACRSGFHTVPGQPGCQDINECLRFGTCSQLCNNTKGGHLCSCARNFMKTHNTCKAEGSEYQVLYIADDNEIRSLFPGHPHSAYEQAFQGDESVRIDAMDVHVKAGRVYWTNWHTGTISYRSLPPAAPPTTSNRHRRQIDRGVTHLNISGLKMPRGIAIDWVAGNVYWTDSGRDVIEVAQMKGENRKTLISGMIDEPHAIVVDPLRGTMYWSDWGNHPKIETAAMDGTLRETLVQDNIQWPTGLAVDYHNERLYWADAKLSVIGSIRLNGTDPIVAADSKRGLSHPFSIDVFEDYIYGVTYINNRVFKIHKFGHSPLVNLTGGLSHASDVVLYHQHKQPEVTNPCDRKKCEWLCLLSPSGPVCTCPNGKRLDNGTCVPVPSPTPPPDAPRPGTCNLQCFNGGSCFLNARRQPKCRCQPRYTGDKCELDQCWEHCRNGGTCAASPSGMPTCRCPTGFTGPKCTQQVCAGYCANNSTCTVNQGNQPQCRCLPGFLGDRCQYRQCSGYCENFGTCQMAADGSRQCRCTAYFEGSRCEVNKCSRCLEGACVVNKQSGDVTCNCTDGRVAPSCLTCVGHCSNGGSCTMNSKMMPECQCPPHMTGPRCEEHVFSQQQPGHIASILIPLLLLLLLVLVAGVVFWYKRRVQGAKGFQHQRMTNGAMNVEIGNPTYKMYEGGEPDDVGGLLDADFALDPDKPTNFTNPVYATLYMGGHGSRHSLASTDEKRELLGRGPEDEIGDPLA

B1: secreted frizzled-related protein 5 (sFRP-5) (ligand, UniProt Q5T4F7 30-317, looked up)
chain: EEYDYYGWQAEPLHGRSYSKPPQCLDIPADLPLCHTVGYKRMRLPNLLEHESLAEVKQQASSWLPLLAKRCHSDTQVFLCSLFAPVCLDRPIYPCRSLCEAVRAGCAPLMEAYGFPWPEMLHCHKFPLDNDLCIAVQFGHLPATAPPVTKICAQCEMEHSADGLMEQMCSSDFVVKMRIKEIKIENGDRKLIGAQKKKKLLKPGPLKRKDTKRLVLHMKNGAGCPCPQLDSLAGSFLVMGRKVDGQLLLMAVYRWDKKNKEMKFAVKFMFSYPCSLYYPFFYGAAEPH
notes: secreted frizzled-related protein 5 (sFRP-5), commercial recombinant protein; source: bought: R&D Systems 6266-SF-050
Turning to B1, the dissociation constant Kd – broadly, the concentration at which binding is half-saturated – stood at 32 nM.
